The target in assay [1] is large-conductance calcium-activated potassium (BKCa) channel alpha subunit (rat (endogenous in mesenteric arteries)) (UniProt Q62976).
The target is the same in assay [2]. This is another data set of the same source.

Chain of inositol 1,4,5-trisphosphate receptor 1, P29994 1-2750 (natural protein) (P29994 whole entry): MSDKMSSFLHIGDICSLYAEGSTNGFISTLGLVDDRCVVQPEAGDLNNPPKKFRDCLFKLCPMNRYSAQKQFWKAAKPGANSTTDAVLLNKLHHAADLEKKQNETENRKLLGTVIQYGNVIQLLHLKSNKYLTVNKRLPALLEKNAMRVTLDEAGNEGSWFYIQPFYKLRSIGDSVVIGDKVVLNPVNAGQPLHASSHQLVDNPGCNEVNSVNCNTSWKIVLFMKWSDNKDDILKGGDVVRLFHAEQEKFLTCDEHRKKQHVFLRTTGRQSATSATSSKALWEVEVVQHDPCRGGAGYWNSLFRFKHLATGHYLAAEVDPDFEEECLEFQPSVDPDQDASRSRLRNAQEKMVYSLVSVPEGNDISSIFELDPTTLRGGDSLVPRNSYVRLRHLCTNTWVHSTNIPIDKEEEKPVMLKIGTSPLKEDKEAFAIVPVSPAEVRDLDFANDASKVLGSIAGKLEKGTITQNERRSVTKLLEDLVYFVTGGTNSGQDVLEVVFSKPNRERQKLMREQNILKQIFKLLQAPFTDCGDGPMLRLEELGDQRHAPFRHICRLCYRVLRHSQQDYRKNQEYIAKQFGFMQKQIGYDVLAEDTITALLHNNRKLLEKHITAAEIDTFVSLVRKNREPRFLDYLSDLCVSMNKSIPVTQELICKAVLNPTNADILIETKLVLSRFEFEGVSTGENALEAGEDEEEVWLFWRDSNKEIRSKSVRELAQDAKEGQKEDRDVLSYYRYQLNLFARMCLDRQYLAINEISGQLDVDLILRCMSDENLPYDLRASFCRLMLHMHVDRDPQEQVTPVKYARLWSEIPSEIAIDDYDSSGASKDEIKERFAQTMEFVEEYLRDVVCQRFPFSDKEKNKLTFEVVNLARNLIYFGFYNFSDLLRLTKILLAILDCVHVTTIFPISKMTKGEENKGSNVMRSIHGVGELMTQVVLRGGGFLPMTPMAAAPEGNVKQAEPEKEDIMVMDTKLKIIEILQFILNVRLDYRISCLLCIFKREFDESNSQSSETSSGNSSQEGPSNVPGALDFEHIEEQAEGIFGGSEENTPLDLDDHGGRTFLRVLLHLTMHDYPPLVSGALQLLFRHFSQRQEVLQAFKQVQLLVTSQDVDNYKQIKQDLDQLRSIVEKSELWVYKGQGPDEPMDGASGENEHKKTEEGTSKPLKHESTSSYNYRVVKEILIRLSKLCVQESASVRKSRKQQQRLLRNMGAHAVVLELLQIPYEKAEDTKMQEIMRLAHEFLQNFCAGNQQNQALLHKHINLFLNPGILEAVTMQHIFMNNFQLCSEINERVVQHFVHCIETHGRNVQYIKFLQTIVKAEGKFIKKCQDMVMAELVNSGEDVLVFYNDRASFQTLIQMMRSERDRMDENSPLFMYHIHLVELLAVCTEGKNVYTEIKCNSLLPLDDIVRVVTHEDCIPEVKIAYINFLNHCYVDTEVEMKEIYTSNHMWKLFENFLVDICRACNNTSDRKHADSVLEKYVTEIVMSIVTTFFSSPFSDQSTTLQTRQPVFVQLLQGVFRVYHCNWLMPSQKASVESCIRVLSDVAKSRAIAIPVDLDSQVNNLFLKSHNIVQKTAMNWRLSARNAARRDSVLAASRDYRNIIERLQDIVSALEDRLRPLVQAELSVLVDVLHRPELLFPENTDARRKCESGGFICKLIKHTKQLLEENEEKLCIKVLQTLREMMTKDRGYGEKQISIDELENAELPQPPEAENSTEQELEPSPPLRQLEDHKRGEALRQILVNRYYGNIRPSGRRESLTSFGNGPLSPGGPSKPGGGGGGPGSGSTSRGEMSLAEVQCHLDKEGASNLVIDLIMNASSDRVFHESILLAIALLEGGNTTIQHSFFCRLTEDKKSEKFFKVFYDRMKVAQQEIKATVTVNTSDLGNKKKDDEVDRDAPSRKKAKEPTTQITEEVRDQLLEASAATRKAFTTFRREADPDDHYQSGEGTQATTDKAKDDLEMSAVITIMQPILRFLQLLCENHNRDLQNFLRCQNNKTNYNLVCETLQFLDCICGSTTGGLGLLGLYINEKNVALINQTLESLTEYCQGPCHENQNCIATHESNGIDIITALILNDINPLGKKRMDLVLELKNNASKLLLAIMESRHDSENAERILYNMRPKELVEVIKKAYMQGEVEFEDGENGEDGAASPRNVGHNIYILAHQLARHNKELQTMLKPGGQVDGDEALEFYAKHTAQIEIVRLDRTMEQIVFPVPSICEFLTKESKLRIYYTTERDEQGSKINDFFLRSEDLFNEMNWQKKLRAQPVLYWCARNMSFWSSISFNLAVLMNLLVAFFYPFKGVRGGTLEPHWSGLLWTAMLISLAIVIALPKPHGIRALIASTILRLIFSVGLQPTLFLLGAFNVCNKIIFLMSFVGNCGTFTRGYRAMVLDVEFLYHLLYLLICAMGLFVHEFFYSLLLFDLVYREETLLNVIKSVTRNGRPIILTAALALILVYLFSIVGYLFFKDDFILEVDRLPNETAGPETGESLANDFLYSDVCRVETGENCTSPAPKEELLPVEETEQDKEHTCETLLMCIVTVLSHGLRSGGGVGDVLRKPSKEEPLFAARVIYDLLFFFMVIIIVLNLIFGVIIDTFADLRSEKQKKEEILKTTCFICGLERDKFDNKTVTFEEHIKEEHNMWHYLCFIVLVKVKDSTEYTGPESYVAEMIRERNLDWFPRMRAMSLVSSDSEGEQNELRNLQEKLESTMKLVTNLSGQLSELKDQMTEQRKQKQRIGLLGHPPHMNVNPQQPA
Chain of large-conductance calcium-activated potassium (BKCa) channel alpha subunit (rat (endogenous in mesenteric arteries)) (Q62976 whole entry): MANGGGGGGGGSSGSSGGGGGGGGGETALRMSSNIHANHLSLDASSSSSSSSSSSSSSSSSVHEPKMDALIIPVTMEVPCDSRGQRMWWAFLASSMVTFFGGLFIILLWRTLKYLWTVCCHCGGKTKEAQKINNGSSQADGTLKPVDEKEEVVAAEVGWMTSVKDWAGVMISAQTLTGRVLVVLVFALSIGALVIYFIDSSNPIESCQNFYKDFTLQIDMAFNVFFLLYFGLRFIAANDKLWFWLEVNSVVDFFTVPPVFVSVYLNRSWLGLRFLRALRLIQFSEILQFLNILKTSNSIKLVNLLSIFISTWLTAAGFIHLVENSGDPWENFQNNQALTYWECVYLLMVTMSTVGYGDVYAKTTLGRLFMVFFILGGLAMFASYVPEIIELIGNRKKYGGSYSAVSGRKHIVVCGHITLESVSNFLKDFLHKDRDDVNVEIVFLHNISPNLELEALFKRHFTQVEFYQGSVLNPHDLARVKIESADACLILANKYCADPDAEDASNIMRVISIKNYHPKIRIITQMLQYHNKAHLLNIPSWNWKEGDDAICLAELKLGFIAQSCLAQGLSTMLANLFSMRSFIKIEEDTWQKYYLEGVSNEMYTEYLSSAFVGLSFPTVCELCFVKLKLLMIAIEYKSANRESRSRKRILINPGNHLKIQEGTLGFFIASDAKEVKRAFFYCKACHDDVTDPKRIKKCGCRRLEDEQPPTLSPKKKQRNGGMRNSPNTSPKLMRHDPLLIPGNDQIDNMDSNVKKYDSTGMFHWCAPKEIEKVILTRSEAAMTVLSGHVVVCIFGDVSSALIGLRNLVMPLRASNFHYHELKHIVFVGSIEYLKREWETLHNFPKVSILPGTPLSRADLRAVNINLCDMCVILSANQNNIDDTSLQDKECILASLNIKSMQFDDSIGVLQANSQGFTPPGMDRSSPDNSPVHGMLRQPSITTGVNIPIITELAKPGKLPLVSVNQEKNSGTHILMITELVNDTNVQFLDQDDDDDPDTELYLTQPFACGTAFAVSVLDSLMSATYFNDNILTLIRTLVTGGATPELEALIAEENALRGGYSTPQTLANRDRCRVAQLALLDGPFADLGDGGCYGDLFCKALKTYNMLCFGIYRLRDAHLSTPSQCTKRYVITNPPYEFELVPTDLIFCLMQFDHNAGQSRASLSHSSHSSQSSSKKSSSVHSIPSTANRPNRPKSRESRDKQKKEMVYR

On to “inositol 1,4,5-trisphosphate receptor 1, P29994 1-2750 (natural protein)”, for which the whole-cell BKCa current density at +60 mV in mesenteric VSMCs of WKY rats before and after the IP3R agonist Adenophostin A in assay [1] turned out to be 142 pA/pF. For the same substance, the whole-cell BKCa current density at +60 mV in mesenteric VSMCs of SHR before and after the IP3R agonist Adenophostin A in assay [2] was 65.6 pA/pF.

For the origin of these results see paper PMC10341547.
